The source of these data is PMC2119551.

This test deals with aFGF receptors on the surface of NBT-II cells (rat (endogenous in NBT-II)). Put plainly: radioligand binding.

Substance “Human recombinant acidic FGF (from UniProt P05230 1-155) (ligand)” had a cpm bound (cells preincubated with 100 ng/ml pertussis toxin) of 11800 cpm, a cpm bound (cells preincubated with 10 ug/ml cholera toxin) of 13600 cpm, a cpm bound (cells preincubated with 100 uM forskolin) of 14300 cpm and a cpm bound (untreated cells) of 12700 cpm.
